This note sets out measurements from article PMC5737834.

“And” between values parts separate entries of the source, which are not always exact repeats. Identical values can stand only once.

For the experiment, the target named is Recombinant human SP-A1 (SP-A1^hyp) (human) (UniProt Q8IWL2). Put plainly: native gel or EMSA + AUC.

With “Recombinant human SP-A1 (SP-A1^hyp) (from UniProt Q8IWL2 21-248) (natural protein)”, the stoichiometry N was 3 and 6.

By stoichiometry N is commonly meant the number of molecules, sites or subunits per partner or assembly.
